Measurements taken from the supplement of paper PMC7125110.
± gives the standard error. For some assays here: Fewer inactive variants are shown than the library holds.

B1: glmS ribozyme (parent)
chain: AUAAAAGCGCCAGAACUACAGAAAUGUAGUUGACGAGGAGGAGGUUUAUCGAAUUUUCGGCGGAUGCCUCCAAA

Columns and labels:
Settings in all cases: with glucosamine-6-phosphate
glucosamine-6-phosphate [1] = variants of: B1; assay: kcat; higher = faster cleavage; RNA array
Method in brief: (§1)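 Barcoded glmS ribozyme variants on sequenced MiSeq chips were transcribed in situ by E. coli RNA polymerase and tracked through a hybridised Cy3 probe at 37 °C. Glucosamine-6-phosphate (40 μM to 10 mM) in HEPES/KCl/Mg(OAc)2 buffer was flowed in, and tiles were imaged over ~14 h. Signals were normalised to baseline and to non-cleaving reference variants; per-tile medians were fit to one- or two-exponential decays to give kobs. kcat and KM came from weighted Michaelis–Menten fits across concentrations.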

glucosamine-6-phosphate [2] = variants of: B1; assay: self-cleavage kobs at 160 uM GlcN6P; higher = faster cleavage; RNA array
Method in brief: as §1

glucosamine-6-phosphate [3] = variants of: B1; assay: self-cleavage kobs at 640 uM GlcN6P; higher = faster cleavage; RNA array
Method in brief: as §1

glucosamine-6-phosphate [4] = variants of: B1; assay: self-cleavage kobs at 2500 uM GlcN6P; higher = faster cleavage; RNA array
Method in brief: as §1

glucosamine-6-phosphate [5] = variants of: B1; assay: self-cleavage kobs at 10000 uM GlcN6P; higher = faster cleavage; RNA array
Method in brief: as §1

glucosamine-6-phosphate [6] = variants of: B1; assay: KM; higher = weaker cofactor use; RNA array
Method in brief: as §1

glucosamine-6-phosphate [7] = variants of: B1; assay: self-cleavage kobs at 40 uM GlcN6P; higher = faster cleavage; RNA array
Method in brief: as §1

Variant | kcat (glucosamine-6-phosphate [1]) [s⁻¹] | self-cleavage kobs at 160 uM GlcN6P (glucosamine-6-phosphate [2]) [s⁻¹] | self-cleavage kobs at 640 uM GlcN6P (glucosamine-6-phosphate [3]) [s⁻¹] | self-cleavage kobs at 2500 uM GlcN6P (glucosamine-6-phosphate [4]) [s⁻¹] | self-cleavage kobs at 10000 uM GlcN6P (glucosamine-6-phosphate [5]) [s⁻¹] | KM (glucosamine-6-phosphate [6]) [µM] | self-cleavage kobs at 40 uM GlcN6P (glucosamine-6-phosphate [7]) [s⁻¹]
AUAAAAGCGCCAGAACUACAGAAAUGUAGUUGACGAGGAGGAGGUAGAUCGAAUUUUCGGCGGAUGCCUCCAAA [U46A U47G] | 0.00143 ± 0.00056 | 9.77e-05 ± 3.5e-05 | 0.000647 ± 0.00013 | 0.00107 ± 0.00027 | 0.00106 ± 0.00029 |  | 
AUAAAAGCGCCAGAACUACAGAAAUGUAGUUGGCGAGGAGGAGGUUUACCGAAUUUACGGCGGAUGCCUCCAAA [A33G U49C U57A] | 2.2e-05 ± 2.7e-06 |  |  |  |  |  | 
AUAAAAGCGCCAGAACUACAGAAAUGUAGUUGACGAGAAGGAGGUUUAUCGAAUUUUCGGCGGAUGCCUCGAAA [G38A C71G] | < 1e-05 |  |  |  |  |  | 
AUAAAAGCGCCAGAACUACAGAAAUGUAGUUGACGAGGAGGAGGUUUCUCGAAUUAUCGGCGGAUGCCUCCAAA [A48C U56A] | 0.000146 ± 3.6e-05 |  |  | 7.8e-05 ± 1.6e-05 | 0.000107 ± 1.7e-05 |  | 
AUAAAAGCGCCAGAACUACAGAAAUGUAGUUUACGAGGAGGAGGUUUAUCGAAUUUUCGGCGGAUGCCUCAAAA [G32U C71A] | 0.000322 ± 6.6e-05 |  | 3.16e-05 ± 1.1e-05 | 0.000161 ± 2.6e-05 | 0.000222 ± 2.3e-05 | 4080 ± 1900 | 
AUAAAAGCGCCAGAACUACAGAAAUGUAGUUGACGGGGAGGAGGUUUAUCGAAUUUUCGGCGGAUGCCACCAAA [A36G U69A] | 1.02e-05 ± 2.2e-06 |  |  |  |  |  | 
AUAAAAGCGCCAGAACUACAGAAAUGUAGUUAACGAGGAGGAGGUGUAUCGAAUUUUCGGCGGAUGCCUCCAAA [G32A U46G] | 0.000631 ± 7.4e-05 |  | 9.72e-05 ± 1.8e-05 | 0.000303 ± 5.6e-05 | 0.000468 ± 6.8e-05 | 3220 ± 660 | 
AUAAAAGCGCCAGAACUACAGAAAUGUAGUUGACGAGGAGGAGGUUUAUCGAAUUUGCGGCGGAUGCCUACAAA [U57G C70A] | 4.31e-05 ± 1.5e-05 | 3.33e-05 ± 1.3e-05 | 4.1e-05 ± 1.7e-05 | 6.82e-05 ± 1.9e-05 |  |  | 
AUAAAAGCGCCCGAACUACAGAAAUGUAGUCGACGAGGAGGAGGUUUAUCGAAUUUUCGGCGGAUGCCUCCAAA [A12C U31C] | 0.00286 ± 0.00052 | 8.05e-05 ± 1.6e-05 | 0.000348 ± 6.1e-05 | 0.000876 ± 0.00014 | 0.00195 ± 0.0003 | 5110 ± 1300 | 3.7e-05 ± 1.5e-05
AUAAAAGCGCCGGAAAUACAGAAAUGUAGUUGACGAGGAGGAGGUUUAUCGAAUUUUCGGCGGAUGCCUCCAAA [A12G C16A] | 3.87e-05 ± 9.1e-07 |  |  |  | 3.41e-05 ± 6.7e-06 | 1330 ± 200 | < 1e-05
AUAAAAGCGCCAGAACUACAGAAAUGUAGUUGACGAGGAGGAGGUUUAUUGAAUUUCCGGCGAAUGCCUCCAAA [C50U U57C G63A] | 2.57e-05 ± 3.6e-06 |  |  |  |  |  | 
AUAAAAGCGCCAGAAGUACAGAAAUGUAGUUGACGAGGUGGAGGUUUAUCGAAUUUUCGGCGGAUGCCUCCAAA [C16G A39U] | 0.00424 ± 0.00089 | 0.000164 ± 2.2e-05 | 0.000895 ± 0.00011 | 0.00198 ± 0.00025 | 0.00316 ± 0.00031 | 3090 ± 880 | 6.4e-05 ± 7.3e-06
AUAAAAGCGCCAGAACUACAGAAAUGUAGUUGACGAGGAGGAGGUUUAUCGAGUUUUCGGCGGAUGUCUCCAAA [A53G C67U] | 0.0134 ± 0.0047 | 0.000969 ± 0.00016 | 0.00617 ± 0.0011 | 0.0175 ± 0.0045 | 0.0111 ± 0.0015 | 1400 ± 680 | 0.000512 ± 6.3e-05
AUAAAAGCGCCAGAACUACAGAAAUGUAGUUGACGAGGAGGAGGUUUAUCGUAUUCUCGGCGGAUGCCUCCAAA [A52U U56C] | 2.72e-05 ± 1.5e-06 |  |  |  |  | 1210 ± 330 | 
AUAAAAGCGCCAGAACUACAGAAAUGUAGUUGACGACGAGGAGGUUUAUCGAAUUUGCGGCGGAUGCCUCCAAA [G37C U57G] | 1.13e-05 ± 4.5e-06 | < 1e-05 |  |  | < 1e-05 |  | 
AUAAAAGCGCCAGAACUACAGAAAUGUAGUUGCCGAGGAGGAGGUUUAUCGAAUGUUCGGCGGAUGCCUCCAAA [A33C U55G] | 0.000433 ± 0.00012 |  | 9.32e-05 ± 1.6e-05 | 0.000163 ± 2.8e-05 | 0.000384 ± 6.3e-05 | 2970 ± 1400 | 
AUAAAAGCGCUAGAACUACAGAAAUGUAGUUGUCGAGGAGGAGGUUUAUCGAAUUUUCGGCGGAUGCCUCCAAA [C11U A33U] | 7.95e-05 ± 1.1e-06 |  | 2.29e-05 ± 1.1e-05 | 5.06e-05 ± 9.1e-06 | 6.9e-05 ± 5.3e-06 | 1500 ± 99 | 
AUAAAAGCGCCAUAACUACAGAAAUGUAGUUGACGAGGAGGAGGUUUAUCGAAUUUUCGGCGGAGGGCUCCAAA [G13U U65G C67G] | 7.46e-05 ± 2.9e-06 |  |  | 6.05e-05 ± 2.3e-05 | 6.81e-05 ± 1.5e-05 | 808 ± 170 | 
AUAAAAGCGCCAGAACUACAGAAAUGUAGUUGACGAUGAGGAGGUUUAUCGAAUUUUCGGCGGAUGGCUCCAAA [G37U C67G] | < 1e-05 |  |  |  | < 1e-05 |  | 
AUAAAAGCGCCAGAACUACAGAAAUGUAGUUGACGAGGAGGAGGUUUAUCGAAUCUUCGGCGGAUGCCGCCAAA [U55C U69G] | 1.99e-05 ± 1.9e-06 |  |  |  |  |  | 
AUAAAAGCGCCAGAACUACAGAAAUGUAGUUGACGAGGAGGAGGUUUAUCGAAAUUUCGGCGGUUGCCUCCAAA [U54A A64U] | 0.000124 ± 1.2e-05 |  | 7.79e-05 ± 2.6e-05 | 7.51e-05 ± 2.5e-05 | 0.00012 ± 1.1e-05 |  | 
